The target in one data set is T1, LIG-34 meganuclease (Artificial Sequence (derived from …)).
T1 chain: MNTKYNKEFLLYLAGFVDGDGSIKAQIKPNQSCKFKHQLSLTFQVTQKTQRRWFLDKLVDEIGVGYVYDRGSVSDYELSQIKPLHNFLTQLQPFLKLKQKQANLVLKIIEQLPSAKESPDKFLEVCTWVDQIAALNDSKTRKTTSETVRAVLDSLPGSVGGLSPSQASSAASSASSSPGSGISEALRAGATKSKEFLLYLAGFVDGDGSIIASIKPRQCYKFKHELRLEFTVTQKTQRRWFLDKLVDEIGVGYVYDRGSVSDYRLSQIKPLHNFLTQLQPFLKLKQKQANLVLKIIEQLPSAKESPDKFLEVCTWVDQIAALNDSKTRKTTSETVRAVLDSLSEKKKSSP
In words: cleavage_in_vitro; C50, enzyme to cut 50% of 10 nM linearized pUC19 substrate in 1 h; 37 C, SA buffer pH 8.0, 100 mM NaCl, 5 mM MgCl2, 5 mM EDTA. To be noted: tags: C-terminal 6xHis; N-terminal SV40 NLS; inferred). As for the experimental part:
(§1) The LIG-34 meganucleases were assayed for in vitro activity by incubation with linear, double-stranded DNA substrates containing the meganuclease recognition sequence. Synthetic oligonucleotides corresponding to both sense and antisense strands of the LIG-34 recognition site (SEQ ID NO: 2, SEQ ID NO: 3) were annealed and cloned into the SmaI site of the pUC19 plasmid by blunt-end ligation. The plasmid substrate was linearized with XmnI concurrently with the meganuclease digest. The enzyme digests contained 5 μl of 0.05 μM DNA substrate, 5 μl of meganuclease at varying concentrations (diluted in SA buffer, see below), 14.5 μl SA buffer, and 0.5 μl XmnI. LIG-34 enzyme concentration was varied from 5-400 nM (final concentration). Digests were incubated at 37° C. for 1 hour. Digests were stopped by adding 0.3 mg/ml Proteinase K and 0.5% SDS, and incubated for one hour at 37° C. Digests were analyzed on 1.5% agarose and visualized by ethidium bromide staining.
(§2) Digestion of the linearized plasmid with LIG34, LIG34+ or LIG34++ meganuclease produced two bands on the gel of the sizes corresponding to a simple cut at the LIG-34 site. All of the LIG-34 meganucleases efficiently cut the plasmid substrate harboring the LIG-34 recognition site. […] Thus, while all three enzymes efficiently cleave the LIG-34 site sequence, they do so with varying activity levels (LIG-34<LIG-34+<LIG-34++).

For another data set, the target named is T2, LIG-34+ meganuclease (Artificial Sequence (derived from …)).
T2 chain: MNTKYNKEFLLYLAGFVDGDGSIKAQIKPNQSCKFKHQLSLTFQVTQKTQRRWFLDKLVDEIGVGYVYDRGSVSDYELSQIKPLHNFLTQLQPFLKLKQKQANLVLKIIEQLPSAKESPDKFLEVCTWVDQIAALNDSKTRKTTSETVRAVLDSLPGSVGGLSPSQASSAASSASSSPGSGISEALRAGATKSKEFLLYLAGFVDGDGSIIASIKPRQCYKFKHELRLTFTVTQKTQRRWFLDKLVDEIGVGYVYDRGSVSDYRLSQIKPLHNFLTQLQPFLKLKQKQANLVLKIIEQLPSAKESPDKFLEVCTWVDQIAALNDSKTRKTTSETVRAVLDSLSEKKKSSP
The data set is described as above. As to conditions: tags: C-terminal 6xHis; N-terminal SV40 NLS; inferred). As for the experimental part:
as §1, §2

These results are taken from US20110113509, “RATIONALLY-DESIGNED MEGANUCLEASES FOR MAIZE GENOME ENGINEERING” (PRECISION BIOSCIENCES, INC., published 2011).

B1: LIG-34 recognition site (dsDNA)
DNA 1: TACGCGTACGTGTGAGGTATAT
DNA 2: ATATACCTCACACGTACGCGTA
B1: the results for the EC50 with LIG-34 meganuclease and with LIG-34+ meganuclease were roughly 16 nM and roughly 13 nM, respectively.
